According to patent publication US20200002421A1 (AbbVie / Abbott, published 2020):

T1: hB7-H3 (ELISA antigen of Tables 17 and 20) (human, UniProt Q5ZPR3 29-466, limits assumed)
T1 sequence: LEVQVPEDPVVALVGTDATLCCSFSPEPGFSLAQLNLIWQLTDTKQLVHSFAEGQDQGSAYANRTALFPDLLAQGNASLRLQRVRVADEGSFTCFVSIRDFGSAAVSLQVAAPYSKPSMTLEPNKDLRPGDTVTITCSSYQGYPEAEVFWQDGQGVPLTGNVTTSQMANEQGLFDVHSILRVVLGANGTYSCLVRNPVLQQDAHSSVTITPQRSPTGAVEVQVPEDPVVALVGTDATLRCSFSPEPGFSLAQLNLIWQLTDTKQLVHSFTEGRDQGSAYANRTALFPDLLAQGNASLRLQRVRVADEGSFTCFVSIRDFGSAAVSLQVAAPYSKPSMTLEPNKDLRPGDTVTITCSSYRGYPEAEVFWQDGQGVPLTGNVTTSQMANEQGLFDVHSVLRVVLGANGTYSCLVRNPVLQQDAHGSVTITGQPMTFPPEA

T2: Human full length B7-H3 (human, UniProt Q5ZPR3 29-534)
T2 construct: on 3T12 transfectants, NCI-H1650 and other cells; also called huB7-H3; hu B7-H3
T2 sequence: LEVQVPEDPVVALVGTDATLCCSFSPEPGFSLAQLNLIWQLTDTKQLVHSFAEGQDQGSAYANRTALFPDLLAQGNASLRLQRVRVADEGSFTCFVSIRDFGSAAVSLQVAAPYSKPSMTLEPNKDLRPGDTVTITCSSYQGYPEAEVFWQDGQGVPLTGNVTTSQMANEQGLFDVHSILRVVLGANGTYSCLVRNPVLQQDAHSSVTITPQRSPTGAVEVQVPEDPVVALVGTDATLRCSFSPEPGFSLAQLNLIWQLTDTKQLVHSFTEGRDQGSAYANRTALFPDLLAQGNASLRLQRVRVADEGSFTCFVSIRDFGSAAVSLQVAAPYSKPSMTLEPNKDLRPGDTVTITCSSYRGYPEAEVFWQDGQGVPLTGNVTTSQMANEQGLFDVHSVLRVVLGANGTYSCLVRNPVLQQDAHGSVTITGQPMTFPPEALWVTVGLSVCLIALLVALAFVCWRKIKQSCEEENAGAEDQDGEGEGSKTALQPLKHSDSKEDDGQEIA


Columns and labels:
[1] = biological target: T3, Cynomolgous B7-H3 on cells (cynomolgus); assay: FACS
T3 construct: whole, on cells; also called cyno B7-H3; cyB7-H3
Experimental: (§1) Cells were harvested from flasks when approximately 80% confluent using Gibco® Cell Dissociation Buffer. Cells were washed once in PBS/1% FBS (FACS buffer) then resuspended at 2.5×10⁶ cells/mL in FACS buffer. 100 μL of cells/well were added to a round bottom 96-well plate. 10 μL of a 10× concentration of mAb/ADC (final concentrations are indicated the figures). Wells were washed twice with FACS buffer and resuspended in 50 μL of secondary Ab (AlexaFluor 488) diluted in FACS buffer. The plate was incubated at 4° C. for one hour and washed twice with FACS buffer. Cells were resuspended in 100 μL of PBS/1% formaldehyde and analyzed on a Becton Dickinson LSRII flow cytometer. Data was analyzed using WinList flow cytometry analysis software.
(§2) Nine huAb13 variants described in Examples 17 and 18 were generated and tested for binding to B7-H3 by FACS (according to methods described in Example 6).

[2] = biological target: T1, hB7-H3 (ELISA antigen of Tables 17 and …); assay: ELISA
Human full length B7-H3 [3] = biological target: T2, Human full length B7-H3; assay: FACS
Experimental: as §1, §2

[4] = biological target: T1, hB7-H3 (ELISA antigen of Tables 17 and …); assay: ELISA; ELISA, human B7-H3; no DAR given, so unconjugated
[5] = biological target: T1, hB7-H3 (ELISA antigen of Tables 17 and …); assay: ELISA; remark: listed apart in the source
Human full length B7-H3 [6] = biological target: T2, Human full length B7-H3; assay: FACS, 3T12 transfectants
[7] = biological target: T3, Cynomolgous B7-H3 on cells; assay: FACS, 3T12 transfectants

Row | Binder | EC50 [1] [nM] | EC50 [2] [nM] | EC50 (Human full length B7-H3 [3]) [nM] | EC50 [4] [nM] | EC50 [5] [nM] | EC50 (Human full length B7-H3 [6]) [nM] | EC50 [7] [nM]
1 | huAb13v1 (antibody, human IgG1, kappa, L234A L235A, V domains shown, Ig gamma-1 mutant / kappa) VH: EVQLQESGPGLVKPSETLSLTCAVTGYSITSGYSWHWIRQFPGNGLEWMGYIHSSGSTNYNPSLKSRISISRDTSKNQFFLKLSSVTAADTAVYYCAGYDDYFEYWGQGTTVTVSS VL: DIQMTQSPSSLSASVGDRVTITCKASQNVGFNVAWYQQKPGKSPKALIYSASYRYSGVPSRFSGSGSGTDFTLTISSLQPEDFAEYFCQQYNWYPFTFGQGTKLEIKR | 10 |  |  |  |  |  | 
2 | huAb13v5 (antibody, V domains shown) VH: EVQLQESGPGLVKPSETLSLTCAVTGYSITSGYSWHWIRQFPGNGLEWMGYIHSSGSTNYNPSLKSRISISRDTSKNQFFLKLSSVTAADTAVYYCAGYDDYFEYWGQGTTVTVSS VL: DIQMTQSPSSLSASVGDRVTITCKASQNVGFNVAWYQQKPGKAPKLLIYSASYRYSGVPSRFSGSGSGTDFTLTISSLQPEDFATYYCQQYNWYPFTFGQGTKLEIK | 10.6 | 0.19 | 5.21 |  |  |  | 
3 | huAb13v6 (antibody, V domains shown) VH: EVQLQESGPGLVKPSETLSLTCAVTGYSITSGYSWHWIRQFPGNGLEWMGYIHSSGSTNYNPSLKSRISISRDTSKNQFFLKLSSVTAADTAVYYCAGYDDYFEYWGQGTTVTVSS VL: DIQMTQSPSSLSASVGDRVTITCKASQNVGFNVAWYQQKPGKAPKLLIYSASYRYSGVPSRFSGSGSGTDFTLTISSLQPEDFATYFCQQYNWYPFTFGQGTKLEIK | 12.9 | 0.14 | 5.83 |  |  |  | 
4 | chAb13 (antibody, IgG1, V domains shown, chimeric, huIgG1/k) VH: DVQLQESGPDLVKPSQSLSLTCTVTGYSITSGYSWHWIRQFPGNKLEWMGYIHSSGSTNYNPSLKSRISINRDTSKNQFFLQLNSVTTEDTATYYCAGYDDYFEYWGQGTTLTVSS VL: DIVMTQSQKFMSTSVGDRVSVTCKASQNVGFNVAWYQQKPGQSPKALIYSASYRYSGVPDRFTGSGSGTDFTLTISNVQSEDLAEYFCQQYNSYPFTFGSGTKLEIK | 18.4 |  | 6.27 | 0.26 |  |  | 
5 | huAb3v2.6 (antibody, human IgG1, kappa, L234A L235A, V domains shown, Ig gamma-1 mutant / kappa) VH: EVQLVQSGAEVKKPGSSVKVSCKASGYTFSSYWMHWVRQAPGQGLEWIGLIHPESGSTNYNEMFKNRATLTVDRSTSTAYMELSSLRSEDTAVYYCAGGGRLYFDYWGQGTTVTVSS VL: DIVMTQSPLSLPVTPGEPASISCRSSQSLVHSNQDTYLRWYLQKPGQSPQLLIYKVSNRFSGVPDRFSGSGSGTDFTLKISRVEAEDVGVYYCSQSTHVPYTFGGGTKVEIKR |  |  |  |  | 0.09 | 5.64 | 3.31
6 | huAb3v2.8 (antibody, V domains shown) VH: EVQLVQSGAEVKKPGSSVKVSCKASGYTFSSYWMHWVRQAPGQGLEWIGLIHPISGSTNYNEMFKNRATLTVDRSTSTAYMELSSLRSEDTAVYYCAGGGRLYFDYWGQGTTVTVSS VL: DIVMTQSPLSLPVTPGEPASISCRSSQSLVHSNRDTYLRWYLQKPGQSPQLLIYKVSNRFSGVPDRFSGSGSGTDFTLKISRVEAEDVGVYYCSQSTHVPYTFGGGTKVEIK |  |  |  |  | 0.14 | 3.94 | 3.01
